Laboratory results as given in paper PMC2756588.

T1: Boi1, P38041
T1 sequence (P38041 1-86, looked up): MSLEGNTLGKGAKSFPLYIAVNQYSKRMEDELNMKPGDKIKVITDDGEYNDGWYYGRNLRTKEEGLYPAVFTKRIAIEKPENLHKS

T2: Nbp2, Q12163
T2 sequence (Q12163 103-180, looked up): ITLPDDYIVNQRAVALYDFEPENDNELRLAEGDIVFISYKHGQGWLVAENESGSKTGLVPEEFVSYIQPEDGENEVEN

T3: Abp1, P15891
T3 sequence (P15891 535-592, looked up): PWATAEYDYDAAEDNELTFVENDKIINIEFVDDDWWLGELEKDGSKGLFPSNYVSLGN

T4: Cyk3, Q07533
T4 sequence (Q07533 1-83, looked up): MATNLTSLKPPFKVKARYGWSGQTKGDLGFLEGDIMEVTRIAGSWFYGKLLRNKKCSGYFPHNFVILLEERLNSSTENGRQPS

T5: Sla1-3, P32790
T5 sequence (P32790 344-424, looked up): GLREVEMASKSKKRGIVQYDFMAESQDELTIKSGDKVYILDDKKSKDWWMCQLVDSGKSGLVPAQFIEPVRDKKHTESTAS

T6: Lsb1, P53281
T6 sequence (P53281 45-122, looked up): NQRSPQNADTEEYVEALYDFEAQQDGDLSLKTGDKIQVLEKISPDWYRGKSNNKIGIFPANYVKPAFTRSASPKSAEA

T7: Pex13, P80667
T7 sequence (P80667 295-386, looked up): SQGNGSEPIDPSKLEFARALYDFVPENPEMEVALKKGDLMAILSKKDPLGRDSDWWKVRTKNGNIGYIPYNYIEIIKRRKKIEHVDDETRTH

T8: Lsb4, P32793
T8 sequence (P32793 402-468, looked up): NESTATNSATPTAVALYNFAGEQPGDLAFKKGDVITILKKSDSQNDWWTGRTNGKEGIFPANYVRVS

T9: Pin3, Q06449
T9 sequence (Q06449 53-122, looked up): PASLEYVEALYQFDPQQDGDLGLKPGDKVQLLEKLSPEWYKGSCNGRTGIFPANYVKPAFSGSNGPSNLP

T10: Fus1, P11710
T10 sequence (P11710 432-512, looked up): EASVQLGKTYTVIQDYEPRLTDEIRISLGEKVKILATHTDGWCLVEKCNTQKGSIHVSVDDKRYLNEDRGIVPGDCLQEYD

T11: Bud14, P27637
T11 sequence (P27637 247-328, looked up): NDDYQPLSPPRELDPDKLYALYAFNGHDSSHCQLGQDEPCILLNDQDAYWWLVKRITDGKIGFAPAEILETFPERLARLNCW

T12: Sla1-2, P32790
T12 sequence (P32790 60-140, looked up): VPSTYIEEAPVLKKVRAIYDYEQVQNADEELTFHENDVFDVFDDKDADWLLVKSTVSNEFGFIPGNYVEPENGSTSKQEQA

T13: Bzz1-2, P38822
T13 sequence (P38822 568-633, looked up): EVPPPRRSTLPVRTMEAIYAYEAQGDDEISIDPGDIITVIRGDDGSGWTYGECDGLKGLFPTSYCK

T14: Cdc25, P04821
T14 sequence (P04821 50-136, looked up): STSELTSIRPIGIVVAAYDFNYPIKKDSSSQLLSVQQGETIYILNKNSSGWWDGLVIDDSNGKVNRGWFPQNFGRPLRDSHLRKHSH

T15: Lsb3, P43603
T15 sequence (P43603 385-451, looked up): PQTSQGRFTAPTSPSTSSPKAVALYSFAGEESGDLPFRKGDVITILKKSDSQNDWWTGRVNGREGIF

T16: Boi2, P39969
T16 sequence (P39969 32-116, looked up): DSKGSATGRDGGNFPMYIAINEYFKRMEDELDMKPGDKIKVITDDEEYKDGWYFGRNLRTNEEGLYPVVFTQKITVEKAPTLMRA

T17: Bzz1-1, P38822
T17 sequence (P38822 478-572, looked up): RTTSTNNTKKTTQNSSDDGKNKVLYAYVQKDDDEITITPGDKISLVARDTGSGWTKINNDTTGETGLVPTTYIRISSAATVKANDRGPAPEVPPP

T18: Bbc1, P47068
T18 sequence (P47068 1-78, looked up): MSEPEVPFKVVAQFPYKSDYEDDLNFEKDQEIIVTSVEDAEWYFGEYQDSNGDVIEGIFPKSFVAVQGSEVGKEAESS

T19: Myo5, Q04439
T19 sequence (Q04439 1072-1160, looked up): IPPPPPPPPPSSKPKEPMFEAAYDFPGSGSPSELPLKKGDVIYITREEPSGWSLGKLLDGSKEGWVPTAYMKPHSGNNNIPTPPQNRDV

T20: Hse1, P38753
T20 sequence (P38753 208-285, looked up): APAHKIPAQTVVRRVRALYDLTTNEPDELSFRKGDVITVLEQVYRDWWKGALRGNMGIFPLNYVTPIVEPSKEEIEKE

T21: Hof1, Q05080
T21 sequence (Q05080 590-669, looked up): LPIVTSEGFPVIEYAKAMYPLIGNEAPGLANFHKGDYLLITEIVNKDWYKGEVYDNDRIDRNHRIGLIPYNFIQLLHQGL


What follows are binders tested against T1, Boi1, P38041 (assay: SPOT array). Details: median of control spots 1162.

SPOT intensity	Binder
240	SAPDIPPRSPNRNAH
0	AERNYAPRLPRRETS
0	LASNSPPVYPKRIRH

What follows are binders tested against T2, Nbp2, Q12163 (assay: SPOT array). Details: median of control spots 357.

SPOT intensity	Binder
0	SAPDIPPRSPNRNAH
0	AERNYAPRLPRRETS
0	LASNSPPVYPKRIRH

What follows are binders tested against Bem1-1, P29366 (assay: SPOT array). Details: median of control spots 4282.
Sequence of Bem1-1, P29366 (P29366 55-141): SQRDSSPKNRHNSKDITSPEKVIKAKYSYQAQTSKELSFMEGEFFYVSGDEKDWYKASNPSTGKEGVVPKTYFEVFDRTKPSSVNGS

SPOT intensity	Binder
0	SAPDIPPRSPNRNAH
1	AERNYAPRLPRRETS
0	LASNSPPVYPKRIRH

What follows are binders tested against T3, Abp1, P15891 (assay: SPOT array). Details: median of control spots 935.

SPOT intensity	Binder
8	SAPDIPPRSPNRNAH
50	AERNYAPRLPRRETS
68	LASNSPPVYPKRIRH

The binders below were run against T4, Cyk3, Q07533 (assay: SPOT array). Details: median of control spots 1451.

SPOT intensity	Binder
0	SAPDIPPRSPNRNAH
0	AERNYAPRLPRRETS
0	LASNSPPVYPKRIRH

These binders were tested against GST (assay: SPOT array). Details: median of control spots 978.

SPOT intensity	Binder
0	SAPDIPPRSPNRNAH
0	AERNYAPRLPRRETS
0	LASNSPPVYPKRIRH

These binders were tested against T5, Sla1-3, P32790 (assay: SPOT array). Details: median of control spots 5475.

SPOT intensity	Binder
3	SAPDIPPRSPNRNAH
5	AERNYAPRLPRRETS
0	LASNSPPVYPKRIRH

The binders below were run against T6, Lsb1, P53281 (assay: SPOT array). Details: median of control spots 388.

SPOT intensity	Binder
857	SAPDIPPRSPNRNAH
352	AERNYAPRLPRRETS
0	LASNSPPVYPKRIRH

What follows are binders tested against T7, Pex13, P80667 (assay: SPOT array). Details: median of control spots 1341.

SPOT intensity	Binder
21	SAPDIPPRSPNRNAH
76	AERNYAPRLPRRETS
3	LASNSPPVYPKRIRH

Each binder was assayed against T8, Lsb4, P32793 (assay: SPOT array). Details: median of control spots 397.

SPOT intensity	Binder
145	SAPDIPPRSPNRNAH
137	AERNYAPRLPRRETS
107	LASNSPPVYPKRIRH

The binders below were run against T9, Pin3, Q06449 (assay: SPOT array). Details: median of control spots 2171.

SPOT intensity	Binder
4	SAPDIPPRSPNRNAH
18	AERNYAPRLPRRETS
0	LASNSPPVYPKRIRH

The binders below were run against Bem1-2, P29366 (assay: SPOT array). Details: median of control spots 4347.
Sequence of Bem1-2, P29366 (P29366 139-227): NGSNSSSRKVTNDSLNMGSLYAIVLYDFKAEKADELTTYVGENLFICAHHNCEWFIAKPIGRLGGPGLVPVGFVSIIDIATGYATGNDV

SPOT intensity	Binder
0	SAPDIPPRSPNRNAH
0	AERNYAPRLPRRETS
0	LASNSPPVYPKRIRH

Each binder was assayed against Rvs167, P39743 (assay: SPOT array). Details: median of control spots 2707.
Sequence of Rvs167, P39743 (P39743 419-482): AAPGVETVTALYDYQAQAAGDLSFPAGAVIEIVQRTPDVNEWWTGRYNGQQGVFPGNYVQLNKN

SPOT intensity	Binder
816	SAPDIPPRSPNRNAH
306	AERNYAPRLPRRETS
0	LASNSPPVYPKRIRH

Each binder was assayed against T10, Fus1, P11710 (assay: SPOT array). Details: median of control spots 1200.

SPOT intensity	Binder
0	SAPDIPPRSPNRNAH
0	AERNYAPRLPRRETS
0	LASNSPPVYPKRIRH

Each binder was assayed against T11, Bud14, P27637 (assay: SPOT array). Details: median of control spots 956.

SPOT intensity	Binder
2	SAPDIPPRSPNRNAH
12	AERNYAPRLPRRETS
0	LASNSPPVYPKRIRH

These binders were tested against T12, Sla1-2, P32790 (assay: SPOT array). Details: median of control spots 712.

SPOT intensity	Binder
423	SAPDIPPRSPNRNAH
0	AERNYAPRLPRRETS
0	LASNSPPVYPKRIRH

Each binder was assayed against T13, Bzz1-2, P38822 (assay: SPOT array). Details: median of control spots 4538.

SPOT intensity	Binder
0	SAPDIPPRSPNRNAH
1	AERNYAPRLPRRETS
0	LASNSPPVYPKRIRH

The binders below were run against Myo3, P36006 (assay: SPOT array). Details: median of control spots 468.

SPOT intensity	Binder
0	SAPDIPPRSPNRNAH
0	AERNYAPRLPRRETS
0	LASNSPPVYPKRIRH

These binders were tested against T14, Cdc25, P04821 (assay: SPOT array). Details: median of control spots 969.

SPOT intensity	Binder
0	SAPDIPPRSPNRNAH
11	AERNYAPRLPRRETS
0	LASNSPPVYPKRIRH

These binders were tested against T15, Lsb3, P43603 (assay: SPOT array). Details: median of control spots 406.

SPOT intensity	Binder
207	SAPDIPPRSPNRNAH
371	AERNYAPRLPRRETS
167	LASNSPPVYPKRIRH

Each binder was assayed against T16, Boi2, P39969 (assay: SPOT array). Details: median of control spots 1161.

SPOT intensity	Binder
312	SAPDIPPRSPNRNAH
0	AERNYAPRLPRRETS
0	LASNSPPVYPKRIRH

These binders were tested against T17, Bzz1-1, P38822 (assay: SPOT array). Details: median of control spots 4446.

SPOT intensity	Binder
0	SAPDIPPRSPNRNAH
0	AERNYAPRLPRRETS
0	LASNSPPVYPKRIRH

These binders were tested against Sho1, P40073 (assay: SPOT array). Details: median of control spots 1148.
Sequence of Sho1, P40073 (P40073 287-367): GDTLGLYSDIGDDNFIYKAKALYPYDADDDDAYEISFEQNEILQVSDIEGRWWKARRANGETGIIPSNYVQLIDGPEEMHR

SPOT intensity	Binder
0	SAPDIPPRSPNRNAH
32	AERNYAPRLPRRETS
7	LASNSPPVYPKRIRH

Each binder was assayed against T18, Bbc1, P47068 (assay: SPOT array). Details: median of control spots 796.

SPOT intensity	Binder
1	SAPDIPPRSPNRNAH
18	AERNYAPRLPRRETS
4	LASNSPPVYPKRIRH

The binders below were run against T19, Myo5, Q04439 (assay: SPOT array). Details: median of control spots 471.

SPOT intensity	Binder
0	SAPDIPPRSPNRNAH
0	AERNYAPRLPRRETS
0	LASNSPPVYPKRIRH

Each binder was assayed against T20, Hse1, P38753 (assay: SPOT array). Details: median of control spots 1727.

SPOT intensity	Binder
0	SAPDIPPRSPNRNAH
4	AERNYAPRLPRRETS
1	LASNSPPVYPKRIRH

What follows are binders tested against T21, Hof1, Q05080 (assay: SPOT array). Details: median of control spots 4086.

SPOT intensity	Binder
0	SAPDIPPRSPNRNAH
0	AERNYAPRLPRRETS
1	LASNSPPVYPKRIRH
